{
  "source": "patent US20100143379A1",
  "about": "(priority 2005, published 2010)",
  "key": {"[1]": {"system": "murine bone marrow progenitor cultures", "assay": "BFU-E and CFU-E erythropoietin-dependent progenitor colony assays", "format": "cell-based", "settings": "10-100 ng/ml MIF, 1-20 ng/ml TNFα, or 10-100 U/ml IFNγ", "experimental": "Bone marrow cells were harvested, plated in a methylcellulose-based medium, and colony numbers scored after the addition of murine cytokines. Individual assays were performed in duplicate, and the data shown is a compilation of 3-6 independently performed experiments. % inhibition of colony formation is calculated with reference to a cytokine-minus control. All values shown are the mean±SD and are significant when compared to wells with no cytokine addition (P<0.05). CFU-E: colony forming unit—erythroid; BFU-E: burst-forming unit—erythroid.\nThe two inflammatory cytokines, TNFα and IFNγ, were also studied. TNFα and IFNγ are produced as a consequence of macrophage and T cell activation (McDevitt et al. 2004. Curr Hematol Rep 3:97-106). The appearance of BFU-E and CFU-E were quantified after culture with these cytokines, applied either alone or in combination.\nBFU-E and CFU-E Progenitor Cell Assays. The progenitor cell (colony) assays were performed according to the standardized methods described previously (Martiney et al. 2000. Infection and Immunity 68:2259-2267) and protocols from StemCell Technologies (Vancouver; BC, Canada). Briefly, washed murine bone marrow cells were plated in sterile 35-mm dishes containing a methylcellulose-based medium and growth factors. The total number of bone marrow cells plated in duplicate culture dishes were as follows: 2×10^5 for CFU-E and 5×10^5 for BFU-E. MethoCult™ M3334 was utilized for the CFU-E and BFU-E colony assays. The media for CFU-E and BFU-E was volume adjusted by adding 1 part Isocove's MDM to 9 parts MethoCult™ M3334 to give final concentrations of the following components: 15% fetal bovine serum, 1% BSA, […] transferrin, […] insulin, 1% methylcellulose, 10^−4 M 2-mercaptoethanol, 2 mM L-glutamine and 3 units/ml erythropoietin. Each assay of different bone marrow progenitor cells was performed independently 3-6 times."}, "p53": {"system": "p53", "assay": "Ser15-phosphorylated p53 content, macrophages", "format": "cell-based, mouse", "settings": "during apoptosis induction", "experimental": "Apoptosis Studies. […] Cell lysates were collected, and caspase-3 activity analyzed using a colorimetric assay kit (R&D Systems). Cytoplasmic p53 content was analyzed as described previously (Mitchell et al. (2002). Proc Natl Acad Sci USA 99:345-350) by immunoblotting of mouse cytosolic fractions using a pair of anti-phospho-p53 (Ser15) (R&D Systems) and total anti-p53 antibodies (Cell Signaling); and for COS-7 cells, the anti-p53 (Ser15) and total anti-p53 antibodies (Cell Signaling). In vivo apoptosis studies followed the procedures of (Mitchell et al. (2002). Proc Natl Acad Sci USA 99:345-350), and were conducted after i.p injection of 15 mg/kg lipopolysaccharide (E. coli 0111:B4; Sigma). Mice were sacrificed 24 hrs after priming and the peritoneal macrophage cells collected and immediately analyzed for apoptosis by an ELISA that detects cytoplasmic oligonucleosomes (Roche Diagnostics). Primary macrophages also were immunostained by Alexa 488-conjugated, Annexin V (Invitrogen), and apoptotic cells enumerated by fluorescence microscopy."}},
  "data": [
    {"molecule": "MIF: macrophage migration inhibitory factor; recombinant mouse or human MIF purified essentially free of endotoxin (protein) PMFIVNTNVPRASVPDGFLSELTQQLAQATGKPPQYIAVHVVPDQLMAFGGSSEPCALCSLHSIGKIGGAQNRSYSKLLCGLLAERLRISPDRVYINYYDMNAANVGWNNSTFA", "values": [
      {"measurement": "BFU-E and CFU-E colony formation", "setting": "[1]", "value": "dose-dependently inhibited"},
      {"measurement": "cellular content of Ser15-phosphorylated p53", "setting": "p53", "value": "diminution in the cellular content"}
    ]}
  ]
}
